Assay results: publication PMC3828517 (Genes & Development, 2013)
Residue numbers refer to the chain shown, from its start. Numbers in names are those of the source. Values belong to the molecule of their own block, whether it stands above or below them.

Columns and labels:
[1] = biological target: Lrp6 β-propeller domains 1–2 (BP1–2), His8-tagged (human); assay: AlphaScreen or HTRF
crystal structure = biological target: the molecule itself; assay: crystal structure
[2] = biological target: T1, MBP-Norrin (human Norrin residues 25–133 fused to the C terminus of maltose-binding protein) (human), Q00604; assay: SEC; conditions: remark: other sources report otherwise
T1 chain: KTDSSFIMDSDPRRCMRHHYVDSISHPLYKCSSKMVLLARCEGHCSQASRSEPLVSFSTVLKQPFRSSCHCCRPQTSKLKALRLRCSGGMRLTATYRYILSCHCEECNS

[3] = biological target: T2, Lrp6BP2-FcH6 (Lrp6 β-propeller 2 as an Fc fusion protein) (human, UniProt O75581 325-631); assay: AlphaScreen or HTRF
T2 sequence: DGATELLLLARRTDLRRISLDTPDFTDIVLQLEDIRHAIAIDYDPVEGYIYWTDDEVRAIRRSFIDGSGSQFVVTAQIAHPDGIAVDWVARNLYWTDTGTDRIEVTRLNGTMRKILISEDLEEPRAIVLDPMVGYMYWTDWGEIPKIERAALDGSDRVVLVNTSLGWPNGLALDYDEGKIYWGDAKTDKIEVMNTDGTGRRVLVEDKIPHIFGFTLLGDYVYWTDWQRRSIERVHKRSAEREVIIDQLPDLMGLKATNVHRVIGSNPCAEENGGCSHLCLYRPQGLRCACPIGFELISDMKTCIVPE

[4] = biological target: T3, Fz4-FcH6 (Frizzled 4 cysteine-rich domain fused with an FcH6 tag) (human, UniProt Q9ULV1 40-164); assay: AlphaScreen or HTRF
T3 sequence: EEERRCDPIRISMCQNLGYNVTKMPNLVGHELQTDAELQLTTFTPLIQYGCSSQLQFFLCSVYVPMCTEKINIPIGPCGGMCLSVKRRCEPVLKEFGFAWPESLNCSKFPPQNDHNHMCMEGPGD

[5] = biological target: T2, Lrp6BP2-FcH6 (Lrp6 β-propeller 2 as an …); assay: BLI
[6] = biological target: T3, Fz4-FcH6 (Frizzled 4 cysteine-rich …); assay: BLI

B1: MBP-Norrin truncation construct (Norrin residues 31–133 fused with MBP at its N terminus), as crystallized (ligand)
chain: IMDSDPRRCMRHHYVDSISHPLYKCSSKMVLLARCEGHCSQASRSEPLVSFSTVLKQPFRSSCHCCRPQTSKLKALRLRCSGGMRLTATYRYILSCHCEECNS
binding result (crystal structure): binds

B2: MBP-Norrin (human Norrin residues 25–133 fused to the C terminus of maltose-binding protein), Q00604 25-133 (ligand)
chain: T1 chain
stoichiometry N [2]: 2

B4: MBP-Norrin (human Norrin residues 25–133 fused to the C terminus of maltose-binding protein) (ligand)
chain: T1 chain
IC50 [4]: 34 nM | binding result [5]: binds | Kd [6]: 5 nM

Other lines, results leading:

IC50 [1]: 288 nM
Molecule: MBP-Norrin R41E mutant protein (from UniProt Q00604 25-133) (ligand)

IC50 [1]: 207 nM
Molecule: MBP-Norrin C55A/C110A mutant protein (from UniProt Q00604 25-133) (ligand)

binding result [3]: binds | Kd [4]: 11 nM
B3: biotinylated MBP-Norrin (AviTag-MBP-Norrin, biotinylated in vivo) (ligand)
chain: T1 chain
modifications: biotin on the AviTag (in vivo biotinylation by BirA)

IC50 [4]: 37 nM
B5: MBP-Norrin C55A/C110A mutant protein (ligand)
chain: T1 chain with C31A, C86A

IC50 [4]: 18 nM
B6: MBP-Norrin K54E/R109E mutant protein (ligand)
chain: T1 chain with K30E, R85E
